Two molecules from paper PMC4148589 (Journal of cell science, 2013) can be followed below.

Common to all, as to assay: FRAP
For assay [1], the target named is CaV1.1 α1S with deletion of amino acids 344–346 (pc-α1Sdel3(Δ344–346)) (UniProt P07293 1-1873, Δ344–346).
Assay [2] addresses CaV1.1 α1S with deletion of amino acid 344 (pc-α1Sdel1(Δ344)) (UniProt P07293 1-1873, Δ344).
For assay [3], the target named is CaV1.1 α1S with deletion of amino acids 344–345 (pc-α1Sdel2(Δ344–345)) (UniProt P07293 1-1873, Δ344–345).
Assay [4] deals with CaV1.2 α1C subunit, untagged (pβA-α1C) (UniProt P22002-5 1-2142).
The target in assay [5] is CaV1.1 α1S subunit, untagged (pc-α1S) (UniProt P07293 1-1873).

B1: skeletal muscle β1a subunit, GFP-tagged (pcDNA3-β1a-GFP) (natural protein)
chain: not shown
Regarding B1, the “R75 (fractional fluorescence recovery 75 s after bleaching)” value in assay [1] was found to be 22.8%; in assay [2], 20.9%; in assay [3], 19.9%; in assay [4], 23.6%.

B2: β1a subunit with the substitution M293A, GFP-tagged (pcDNA3-β1aM293A-GFP) (natural protein)
chain: not shown
Take B2: the “R75 (fractional fluorescence recovery 75 s after bleaching)” value in assay [5] amounted to 45.2%.
